Data on six molecules can be found in US20030166873A1 (Genentech, published 2003).

To fix the notation:
B2: Flt4/IgG (extracellular domain of the Flt4 receptor, amino acids 1-775, spliced to the Fc region of a human IgG heavy chain) (Fc fusion, UniProt P35916 25-775, looked up)
chain: YSMTPPTLNITEESHVIDTGDSLSISCRGQHPLEWAWPGAQEAPATGDKDSEDTGVVRDCEGTDARPYCKVLLLHEVHANDTGSYVCYYKYIKARIEGTTAASSYVFVRDFEQPFINKPDTLLVNRKDAMWVPCLVSIPGLNVTLRSQSSVLWPDGQEVVWDDRRGMLVSTPLLHDALYLQCETTWGDQDFLSNPFLVHITGNELYDIQLLPRKSLELLVGEKLVLNCTVWAEFNSGVTFDWDYPGKQAERGKWVPERRSQQTHTELSSILTIHNVSQHDLGSYVCKANNGIQRFRESTEVIVHENPFISVEWLKGPILEATAGDELVKLPVKLAAYPPPEFQWYKDGKALSGRHSPHALVLKEVTEASTGTYTLALWNSAAGLRRNISLELVVNVPPQIHEKEASSPSIYSRHSRQALTCTAYGVPLPLSIQWHWRPWTPCKMFAQRSLRRRQQQDLMPQCRDWRAVTTQDAVNPIESLDTWTEFVEGKNKTVSKLVIQNANVSAMYKCVVSNKVGQDERLIYFYVTTIPDGFTIESKPSEELLEGQPVLLSCQADSYKYEHLRWYRLNLSTLHDAHGNPLLLDCKNVHLFATPLAASLEEVAPGARHATLSLSIPRVAPEHEGHYVCEVQDRRSHDKHCHKKYLSVQALEAPRLTQNLTDLLVNVSDSLEMQCLVAGAHAPSIVWYKDERLLEEKSGVDLADSNQKLSIQRVREEDAGRYLCSVCNAKGCVNSSASVAVEGSEDKGSME
modifications: 125I-iodinated where used as the labeled form (Example 6)
notes: range 25-775; also called Flt4 receptor-IgG fusion; ^125I-Flt4/IgG; not shown: Fc region (CH2CH3, plasmid pBSSK-Fc) of a human IgG heavy chain
B4: VH1.4 gD fusion protein (herpes glycoprotein D sequence fused to the putative mature sequence of VRP, plasmid pRK.vh1.4.5) (ligand)
chain: KYALADASLKMADPNRFRGKDLPVLDQLLEGGAAHYALLPGPREAPAAAAAFESGLDLSDAEPDAGEATAYASKDLEEQLRSVSSVDELMTVLYPEYWKMYKCQLRKGGWQHNREQANLNSRTEETIKFAAAHTNTEILKSIDNEWRKTQCMPREVCIDVGKEFGVATNTFFKPPCVSVYRCGGCCNSEGLQCMNTSTSYLSKTLFEITVPLSQGPKPVTISFANHTSCRCMSKLDVYRQVHSIIRRSLPATLPQCQAANKTCPTNYMWNNHICRCLAQEDFMFSSDAGDDSTDGFHDICGPNKELDEETCQCVCRAGLRPASCGPHKELDRNSCQCVCKNKLFPSQCGANREFDENTCQCVCKRTCPRNQPLNPGKCACECTESPQKCLLKGKKFHHQTCSCYRRPCTNRQKACEPGFSYSEEVCRCVPSYWKRPQMS
notes: also called purified VRP; gD-VRP

In experiment [1] the target is B2. Put plainly: receptor IgG / protein A precipitation of 35S-labeled conditioned medium.
Another experiment has as its target T1, Flk1/IgG (UniProt P35968 20-764, limits assumed).
T1 construct: Construct known only by citation
The description is as above.

Experiment [2] deals with putative membrane-bound VRP (putative membrane-bound ligand) on human glioma cell line G61. Put plainly: FACS, 70 nM receptor IgG on G61 cells, compared with Rse/IgG.
Experiment [3] concerns the target B4. The experiment can be described thus: competition of ^125I-Flt4/IgG binding to gD-VRP on 5B6 beads by increasing unlabeled Flt4/IgG.
The target of experiment [4] is B2. The experiment can be described thus: receptor IgG / protein A precipitation of 35S-labeled COS7 conditioned medium.
For experiment [5], the target named is B2. The experiment can be described thus: ^125I-Flt4/IgG binding to gD-VRP captured on 5B6 glass beads, filtration and counting.
Experiment [6] deals with B2. Put plainly: binding of labeled VEGF to receptor IgG.

T1 sequence (P35968 20-764 limits assumed): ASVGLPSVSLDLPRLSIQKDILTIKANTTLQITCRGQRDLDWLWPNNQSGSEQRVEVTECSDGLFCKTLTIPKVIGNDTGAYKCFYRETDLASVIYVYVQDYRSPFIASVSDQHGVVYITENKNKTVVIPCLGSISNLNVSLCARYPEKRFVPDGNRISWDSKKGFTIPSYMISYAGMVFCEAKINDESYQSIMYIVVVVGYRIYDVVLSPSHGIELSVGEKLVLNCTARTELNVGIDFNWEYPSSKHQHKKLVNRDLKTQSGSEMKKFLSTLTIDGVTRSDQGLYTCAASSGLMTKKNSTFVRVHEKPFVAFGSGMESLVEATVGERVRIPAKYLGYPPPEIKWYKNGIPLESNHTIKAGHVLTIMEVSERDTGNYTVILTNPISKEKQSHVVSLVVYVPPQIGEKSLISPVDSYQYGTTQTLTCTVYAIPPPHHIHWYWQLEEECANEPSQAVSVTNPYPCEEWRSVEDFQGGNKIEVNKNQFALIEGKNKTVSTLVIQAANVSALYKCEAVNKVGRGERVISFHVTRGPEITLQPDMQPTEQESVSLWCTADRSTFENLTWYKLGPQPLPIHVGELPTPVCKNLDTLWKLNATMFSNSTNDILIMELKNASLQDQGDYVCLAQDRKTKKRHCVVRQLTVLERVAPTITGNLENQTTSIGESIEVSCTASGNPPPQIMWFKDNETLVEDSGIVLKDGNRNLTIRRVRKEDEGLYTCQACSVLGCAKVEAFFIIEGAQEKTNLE

B1: PlGF152 (expression plasmid of Park et al.) (ligand, UniProt P49763-3 19-170, looked up)
chain: LPAVPPQQWALSAGNGSSEVEVVPFQEVWGRSYCRALERLVDVVSEYPSEVEHMFSPSCVSLLRCTGCCGDENLHCVPVETANVTMQLLKIRSGDRPSYVELTFSQHVRCECRPLREKMKPERRRPKGRGKRRREKQRPTDCHLCGDAVPRR
modifications: 35S-labeled amino acids
notes: also called PIGF; placental growth factor
In the case of B1, the binding result (in experiment [1]; with Flk1/IgG) was “no binding (tested: 3 µg of receptor IgG)” throughout. A word on the EC50: it is the concentration that produces a half-maximal response. High values mean lower potency in that assay, low ones higher potency in that assay. Regarding B2, in experiment [2], the “shift in peak fluorescence intensity” value is about 10 fold. In experiment [3], this molecule displayed an EC50 of about 0.7 nM.

B3: human VEGF-related protein (VRP), expressed from cDNA clone VH1.4 (plasmid pRK.vh1.4.2) (ligand)
chain: GPREAPAAAAAFESGLDLSDAEPDAGEATAYASKDLEEQLRSVSSVDELMTVLYPEYWKMYKCQLRKGGWQHNREQANLNSRTEETIKFAAAHTNTEILKSIDNEWRKTQCMPREVCIDVGKEFGVATNTFFKPPCVSVYRCGGCCNSEGLQCMNTSTSYLSKTLFEITVPLSQGPKPVTISFANHTSCRCMSKLDVYRQVHSIIRRSLPATLPQCQAANKTCPTNYMWNNHICRCLAQEDFMFSSDAGDDSTDGFHDICGPNKELDEETCQCVCRAGLRPASCGPHKELDRNSCQCVCKNKLFPSQCGANREFDENTCQCVCKRTCPRNQPLNPGKCACECTESPQKCLLKGKKFHHQTCSCYRRPCTNRQKACEPGFSYSEEVCRCVPSYWKRPQMS
modifications: 35S-labeled amino acids in Example 4
notes: The cleavage site after amino acid 20 is predicted ('most likely'; cleavage after 15 or 16 is not excluded); Flt4/IgG precipitated bands of 53 kDa and 33 kDa, so the secreted protein may be further processed
For the molecule B3, the binding result in experiment [4] is on record as “binds”.

B4: the binding result in experiment [5] is “binds”.

B5: Labeled VEGF (ligand, UniProt P15692-4 27-191, looked up)
chain: APMAEGGGQNHHEVVKFMDVYQRSYCHPIETLVDIFQEYPDEIEYIFKPSCVPLMRCGGCCNDEGLECVPTEESNITMQIMRIKPHQGQHIGEMSFLQHNKCECRPKKDRARQENPCGPCSERRKHLFVQDPQTCKCSCKNTDSRCKARQLELNERTCRCDKPRR
modifications: labeled (label not stated)
B5: the binding result in experiment [6] was “no binding”.

B6: VEGF165 (expression plasmid of Houck et al.) (ligand, UniProt P15692-4 27-191, looked up)
chain: APMAEGGGQNHHEVVKFMDVYQRSYCHPIETLVDIFQEYPDEIEYIFKPSCVPLMRCGGCCNDEGLECVPTEESNITMQIMRIKPHQGQHIGEMSFLQHNKCECRPKKDRARQENPCGPCSERRKHLFVQDPQTCKCSCKNTDSRCKARQLELNERTCRCDKPRR
modifications: 35S-labeled amino acids in Example 4
notes: The background calls VEGF a homodimer
B6: in experiment [1], the binding result is “no binding (tested: 3 µg of receptor IgG)”.
